# Experimental data reported in patent EP1324044A1.
# Target: Fas receptor on primary mouse thyroid follicular cells (TFC) (mouse) (UniProt P25446)
# Assay: cell-based or functional assay
# UniProt P25446, sequence (P25446 22-327): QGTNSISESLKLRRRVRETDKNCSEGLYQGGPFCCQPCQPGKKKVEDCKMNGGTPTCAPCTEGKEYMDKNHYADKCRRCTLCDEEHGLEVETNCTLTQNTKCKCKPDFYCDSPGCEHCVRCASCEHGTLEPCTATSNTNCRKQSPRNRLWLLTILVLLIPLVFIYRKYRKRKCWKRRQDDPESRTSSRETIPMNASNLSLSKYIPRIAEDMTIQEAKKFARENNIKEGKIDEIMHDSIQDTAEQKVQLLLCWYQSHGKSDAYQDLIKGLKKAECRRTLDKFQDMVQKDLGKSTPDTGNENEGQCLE
substance,measurement,value
clone Jo2 anti-Fas antibody,"percentage of proliferation increase of anti-Fas versus control cultures ([3H] thymidine), 48h",37%
same,"percentage of proliferation increase of anti-Fas versus control cultures ([3H] thymidine), 72h",49%
same,"percentage of proliferation increase of anti-Fas versus control cultures ([3H] thymidine), 96h",61%
same,"proliferation of anti-Fas treated TFC ([3H] thymidine, mean cpm of six wells)",392 to 1510 cpm
